Positions count from the first letter of the chain named.
B1: TTM-001: AAV9 capsid variant comprising SPHSKA (SEQ ID NO: 941) in loop IV (protein)
chain 1: MAADGYLPDWLEDNLSEGIREWWALKPGAPQPKANQQHQDNARGLVLPGYKYLGPGNGLDKGEPVNAADAAALEHDKAYDQQLKAGDNPYLKYNHADAEFQERLKEDTSFGGNLGRAVFQAKKRLLEPLGLVEEAAKTAPGKKRPVEQSPQEPDSSAGIGKSGAQPAKKRLNFGQTGDTESVPDPQPIGEPPAAPSGVGSLTMASGGGAPVADNNEGADGVGSSSGNWHCDSQWLGDRVITTSTRTWALPTYNNHLYKQISNSTSGGSSNDNAYFGYSTPWGYFDFNRFHCHFSPRDWQRLINNNWGFRPKRLNFKLFNIQVKEVTDNNGVKTIANNLTSTVQVFTDSDYQLPYVLGSAHEGCLPPFPADVFMIPQYGYLTLNDGSQAVGRSSFYCLEYFPSQMLRTGNNFQFSYEFENVPFHSSYAHSQSLDRLMNPLIDQYLYYLSKTINGSGSPHSKAQNQQTLKFSVAGPSNMAVQGRNYIPGPSYRQQRVSTTVTQNNNSEFAWPGASSWALNGRNSLMNPGPAMASHKEGEDRFFPLSGSLIFGKQGTGRDNVDADKVMITNEEEIKTTNPVATESYGQVATNHQSAQAQAQTGWVQNQGILPGMVWQDRDVYLQGPIWAKIPHTDGNFHPSPLMGGFGMKHPPPQILIKNTPVPADPPTAFNKDKLNSFITQYSTGQVSVEIEWELQKENSKRWNPEIQYTSNYYKSNNVEFAVNTEGVYSEPRPIGTRYLTRNL
chain 2: GSGSPHSKAQNQQT
B2: TTM-002: AAV9 capsid variant comprising HDSPHK (SEQ ID NO: 2) in loop IV (protein)
chain 1: B1 chain 1 with S454H, G455D, S459K, K460S, A461G
chain 2: GHDSPHKSGQNQQT

Experiments:
[1] = tested on: GPI anchored proteins (endogenous ALPL) on HeLa cells; test: Transduction of HeLa cells after PI/PLC removal of GPI anchored proteins; format: cell-based, human; settings: 1E4 VG/cell
Description: Endogenous ALPL was also removed from the surface of HeLa cells by treatment with increasing concentrations phosphatidylinositol-specific phospholipase C (PI/PLC), which cleaves GPI anchored proteins (0, 1, 3, 6, or 10 U/mL), for 1.5 hours at 37° C. Following PI/PLC treatment, cells were incubated with 1E4 VG/cell for three hours of AAV particles comprising the TTM-002 capsid variant or AAV particles comprising an AAV9 control capsid, cells were then washed to remove free virus, and luciferase activity was measured 24 hours post-transduction (RLU).

[2] = tested on: brain, spinal cord, and DRG of the NHPs; test: NGS fold enrichment of synthetic library (passage 3) in NHPs, first cross-species screen; format: in vivo, cynomolgus macaques (Macaca fascicularis); settings: for fold enrichment in the DRG of NHPs relative to AAV9 / fold enrichment in the brain of NHPs relative to AAV9 / fold enrichment in the spinal cord of NHPs relative to AAV9: passage 3, intravenous; for Fold enrichment over AAV9 in the brain of NHPs / Fold enrichment over AAV9 in the spinal cord of NHPs: synthetic library passage 3, intravenous, RNA NGS, relative to wild-type AAV9
Outline: (§1)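 Synthetic capsid library (passage 3) was given intravenously […] to NHPs aged 2-4 years and to BALB/c and C57Bl/6 mice (n=3 each, 6-8 weeks). After about 28 days in vivo, tissue RNA was RT-PCR amplified and NGS-sequenced; values are fold enrichment per variant relative to wild-type AAV9.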

brain [3] = test: NGS fold enrichment of synthetic library (passage 3) in BALB/c mice, first cross-species screen; format: in vivo; settings: synthetic library passage 3, intravenous, RNA NGS, brain of BALB/c mice, relative to wild-type AAV9
Outline: as §1

brain [4] = test: NGS fold enrichment of synthetic library (passage 3) in C57Bl/6 mice, first cross-species screen; format: in vivo; settings: synthetic library passage 3, intravenous, RNA NGS, brain of C57Bl/6 mice, relative to wild-type AAV9
Outline: as §1

brain [5] = test: Second cross-species screen, passage 2 in BALB/c mice after first passage in NHPs; format: in vivo
Description: A second cross-species evolution screen was performed using an AAV capsid variant library with a modification in loop IV introduced as described above and passaging it once through NHPs (passage 1) and then subsequently injected it into two different strains of mice (passage 2), C57Bl/6 and BALB/c. The fold-enrichment for each variant in the brain of each mouse species was calculated by systematic NGS enrichment analysis following RNA recovery and RT-PCR amplification. The fold enrichment values in the second passage in mice were compared to those fold enrichment values from the second pass that was performed in NHPs as described above. […] Further, 10 of these 12 variants comprised the SPH motif and a positive residue in one of the next three subsequent residues (Table 10).

brain [6] = test: Second cross-species screen, synthetic library passage 3 in C57Bl/6 mice; format: in vivo; settings: third passage (P3)
Description: There were approximately 500 variants in this synthetic library. This synthetic library was then injected back into both strains of mice (C57Bl/6 and BALB/c; passage 3). RNA was recovered from the mouse brains, RT-PCR amplification was performed, and fold-enrichment relative to wild-type AAV9 was calculated by NGS analysis, which is provided in Table 11.

[7] = target: T1, ALPL transcript variant 2 that lacks the ER signal (Homo sapiens, UniProt P05186); test: Transduction assay in HEK 293T cells expressing ALPL with deletion of the ER localization signal; format: cell-based; settings: luciferase, relative to pCMV6
T1 construct: expressed in transfected cells; host or cells: HEK 293T
T1 sequence (P05186 1-469 isoform P05186-3): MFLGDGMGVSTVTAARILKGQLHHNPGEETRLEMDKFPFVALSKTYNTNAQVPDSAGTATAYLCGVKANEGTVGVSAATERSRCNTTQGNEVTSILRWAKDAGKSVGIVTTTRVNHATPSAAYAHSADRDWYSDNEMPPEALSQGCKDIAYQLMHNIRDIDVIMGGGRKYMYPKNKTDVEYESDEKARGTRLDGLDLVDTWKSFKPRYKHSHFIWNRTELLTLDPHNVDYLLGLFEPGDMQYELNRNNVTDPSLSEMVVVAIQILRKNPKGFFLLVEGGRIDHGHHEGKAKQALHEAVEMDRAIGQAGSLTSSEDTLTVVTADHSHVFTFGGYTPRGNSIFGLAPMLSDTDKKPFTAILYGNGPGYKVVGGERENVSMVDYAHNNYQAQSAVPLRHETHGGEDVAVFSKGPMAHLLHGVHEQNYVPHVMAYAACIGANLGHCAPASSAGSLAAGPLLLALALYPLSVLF
Description: To determine if deletion of the endoplasmic reticulum (ER) localization signal of ALPL affected transduction of the TTM-001 and TTM-002 capsid variants, HEK 293T cells were transfected via calcium phosphate transfection with a plasmid expressing ALPL, ALP with a deletion of the ER localization signal (ALPL transcript variant 2 that lacks the ER signal (NM_001127501, which is incorporated by reference herein)), or a pCMV6 negative control. At 24 hours post-transfection, the HEK 293T cells expressing the ALPL receptor were transduced with an AAV particle comprising the TTM-001 capsid variant, the TTM-002 capsid variant, or an AAV9 capsid control, expressing a GFP payload. At 24-hours post-transduction, luciferase activity (RLU) was measured to quantify AAV cellular transduction. Data was normalized to fold change in luciferase activity (RLU) compared to the pCMV6 control.

[8] = tested on: HEK 293T cells transfected with pCMV6 negative control; test: Binding and internalization assay in HEK 293T cells transfected with pCMV6 negative control (viral genomes); format: cell-based; settings: pCMV6 transfected cells (negative control, reference)
Description: Binding and internalization of AAV capsid variants comprising the TTM-001 capsid variant, the TTM-002 capsid variant, or the AAV9 control capsid was also investigated in cells engineered to express ALPL. HEK 293T cells were transfected via calcium phosphate transfection with a plasmid expressing ALPL, an AAVR positive control, or a pCMV6 negative control. At 24 hours post-transfection, the HEK 293T cells expressing the ALPL receptor were incubated with an AAV particle comprising the TTM-001 capsid variant, the TTM-002 capsid variant, or an AAV9 control capsid protein, expressing a GFP payload. At 2 or 3-hours post-incubation, cells were washed to remove unbound AAV particles and DNA was extracted to quantify viral genomes.

Row | Molecule | Transduction in HeLa as measured by luciferase assay (RLU) following treatment with PI/PLC ([1]; PI/PLC 0 U/mL) | Transduction in HeLa as measured by luciferase assay (RLU) following treatment with PI/PLC ([1]; PI/PLC 1 U/mL) | Transduction in HeLa as measured by luciferase assay (RLU) following treatment with PI/PLC ([1]; PI/PLC 3 U/mL) | Transduction in HeLa as measured by luciferase assay (RLU) following treatment with PI/PLC ([1]; PI/PLC 6 U/mL) | Transduction in HeLa as measured by luciferase assay (RLU) following treatment with PI/PLC ([1]; PI/PLC 10 U/mL) | fold enrichment in the DRG of NHPs relative to AAV9 [2] | fold enrichment in the brain of NHPs relative to AAV9 [2] | fold enrichment in the brain of NHPs relative to AAV9 ([2]; listed as GSGSPHSKAQNQQT) | fold enrichment in the spinal cord of NHPs relative to AAV9 [2] | Fold enrichment over AAV9 in the brain of NHPs [2] | Fold enrichment over AAV9 in the spinal cord of NHPs [2] | Fold enrichment over AAV9 in the brain of Mice (BALB/c) (brain [3]) | Fold enrichment over AAV9 in the brain of Mice (C57Bl/6) (brain [4]) | Fold enrichment over AAV9 in BALB/c P2 (brain [5]) | Fold enrichment over AAV9 in C57Bl/6 (brain [6]) | increase in transduction in cells expressing ALPL with deleted ER localization signal [7] | Fold change in viral gene expression (2^-ΔΔCT) relative to pCMV6 transfected cells [8] | transduction after PI/PLC treatment ([1]; HeLa, luciferase 24 hours)
1 | AAV9: wild-type AAV9 control capsid [reference compound] | 239.3 RLU | 193.7 RLU | 222 RLU | 207.7 RLU | 212 RLU | – | – | – | – | – | – | – | – | – | – | – | – | –
2 | B1 | – | – | – | – | – | 0.4 fold | 73.6 fold | 76.6 fold | 29.4 fold | 73.615 fold | 29.402 fold | 41.304 fold | 25.293 fold | 44.58 fold | 65.853 fold | did not occur | 1 fold | –
3 | B2 | 1731 RLU | 474 RLU | 441 RLU | 396.7 RLU | 239.3 RLU | 0.0 fold | 62.6 fold | – | 15.6 fold | 62.612 fold | 15.641 fold | 49.760 fold | 63.993 fold | 59.14 fold | 51.125 fold | did not occur | 1 fold | significantly decreased transduction
